In publication PMC6391921:

Target: full-length H7 HA trimer (influenza A virus (H7))
Assay: BLI

CT149 Fab
Kd: 3.7 nM | koff: 0.0031 s⁻¹ | kon: 360000 M⁻¹ s⁻¹
